Experimental data taken from patent US20180142016A1.

Biological target: human ROR1 extracellular domain (ECD) protein (human) (UniProt Q01973)
Assay: ForteBio Octet; pseudo association rate of Wnt5a binding to ROR1 in the presence of the negative control antibody, not a rate of the antibody itself

Chain of human ROR1 extracellular domain (ECD) protein (human) (Q01973 30-406 limits assumed): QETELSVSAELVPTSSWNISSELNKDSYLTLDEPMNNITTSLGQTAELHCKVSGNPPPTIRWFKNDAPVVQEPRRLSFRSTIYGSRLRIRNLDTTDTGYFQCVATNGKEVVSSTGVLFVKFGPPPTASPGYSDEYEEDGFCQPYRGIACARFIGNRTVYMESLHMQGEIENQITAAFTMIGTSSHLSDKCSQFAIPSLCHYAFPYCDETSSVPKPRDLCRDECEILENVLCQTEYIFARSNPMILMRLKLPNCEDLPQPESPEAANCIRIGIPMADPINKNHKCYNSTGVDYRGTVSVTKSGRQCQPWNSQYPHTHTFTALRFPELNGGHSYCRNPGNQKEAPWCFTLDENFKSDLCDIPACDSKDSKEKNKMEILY

- Pesudo ka: 21000 M⁻¹ s⁻¹
Substance: mAb Control (antibody)
